In article PMC12594171, “DKK3-LRP1 complex and a chemical inhibitor regulate Aβ clearance in models of Alzheimer’s disease” (Science Advances, 2025) one finds percent reduction of Aβ42 binding to mLRPIV data, which are given here for one substance.

The experiment deals with mLRPIV-HA, stably expressed in SH-SY5Y. The experiment is described as follows: co-IP + ELISA; SH-SY5Y cells stably expressing mLRPIV-HA incubated with Aβ42 and 1 to 200 nM DKK1 or DKK3; mLRPIV-HA precipitated with anti-HA affinity gel; Aβ42 in the eluate by ELISA.

Sequence of DKK3-Flag (Q9UBP4 22-350): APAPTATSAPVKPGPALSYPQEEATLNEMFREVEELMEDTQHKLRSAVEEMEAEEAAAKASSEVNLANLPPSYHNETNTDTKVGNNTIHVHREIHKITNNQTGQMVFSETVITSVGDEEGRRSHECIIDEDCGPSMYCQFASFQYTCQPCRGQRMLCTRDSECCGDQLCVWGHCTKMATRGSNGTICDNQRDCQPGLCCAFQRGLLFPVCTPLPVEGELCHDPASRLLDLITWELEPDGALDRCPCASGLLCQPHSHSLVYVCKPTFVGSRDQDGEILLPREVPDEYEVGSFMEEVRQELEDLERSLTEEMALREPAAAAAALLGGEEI

On to “DKK3-Flag (from UniProt Q9UBP4 22-350) (ligand)”, for which the percent reduction of Aβ42 binding to mLRPIV at 20 nM DKK3 stood at 60%.
